Data from patent US20040091487A1.

How the values were obtained:
Assay in all cases: cell-based or functional assay
[1] = molecular target: HIV-1 IN within Gag-Pol (Gag-Pol polyprotein encoded by pCMVDR8.2) (HIV-1)
[2] = molecular target: HIV-1 IN within Gag-Pol of the molecular clone HIV-1R3B (HIV-1)
[3] = molecular target: HIV-1 IN H12Y within Gag-Pol (pCMV-H12Y) (HIV-1)

Row | Substance | decrease in the viral titers as compared to the control [1] [fold] | inhibition of p24 production [1] [fold] | % inhibition [1] [%] | P24 of culture supernatants [1] [ng/mL] | % inhibition [2] [%] | p24 of culture supernatants [2] [ng/mL] | decrease in the level of H12Y virion associated p24 production [3] [fold]
1 | HA-E3 (from UniProt Q12824 183-294) | 2 | 2 |  |  |  |  | 
2 | HA-INI1 aa 1-245 (clone 27B) (from UniProt Q12824 1-245) |  |  | 16 | 95.6 |  |  | 
3 | HA-INI1 aa 141-385 (clone 20.2) (from UniProt Q12824 141-385) |  |  | 69 | 35.4 |  |  | 
4 | HA-S6 (HA-INI1 aa 183-294) (from UniProt Q12824 183-294) |  | 80000 | 100 | 0 | > 99.7 | 0.69 | 10
